Measurements reported in paper PMC4359370.

Tests used:
GFP-TPP1-OB-LacI (human) = test: LacI-LacO tethering assay (co-localisation of GFP and mCherry foci); GFP-TPP1-OB-LacI tethered to a single LacO array on chromosome 1 of U2OS 2-6-3 cells, co-transfected with mCherry-hTERT and hTR; fixed cells, intrinsic fluorescence; fraction of nuclei with co-localised foci (n = 3, 117-176 nuclei total)
[1] = molecular target: POT1-TPP1 E215K complex (wild-type POT1 with TPP1N E215K) (human) (UniProt Q9NUX5)
[2] = molecular target: POT1-TPP1 E169K complex (wild-type POT1 with TPP1N E169K) (human) (UniProt Q9NUX5)
[3] = molecular target: wild-type POT1-TPP1 complex (POT1-TPP1N) (human) (UniProt Q9NUX5)
[4] = molecular target: POT1-TPP1 E215K complex (wild-type POT1 with TPP1N E215K) (human) (UniProt Q9NUX5); remark: listed apart in the source
[5] = molecular target: wild-type POT1-TPP1 complex (POT1-TPP1N) (human) (UniProt Q9NUX5); remark: listed apart in the source
[6] = molecular target: POT1-TPP1 E169K complex (wild-type POT1 with TPP1N E169K) (human) (UniProt Q9NUX5); remark: listed apart in the source

Sequence of GFP-TPP1-OB-LacI (human) (Q96AP0 whole entry): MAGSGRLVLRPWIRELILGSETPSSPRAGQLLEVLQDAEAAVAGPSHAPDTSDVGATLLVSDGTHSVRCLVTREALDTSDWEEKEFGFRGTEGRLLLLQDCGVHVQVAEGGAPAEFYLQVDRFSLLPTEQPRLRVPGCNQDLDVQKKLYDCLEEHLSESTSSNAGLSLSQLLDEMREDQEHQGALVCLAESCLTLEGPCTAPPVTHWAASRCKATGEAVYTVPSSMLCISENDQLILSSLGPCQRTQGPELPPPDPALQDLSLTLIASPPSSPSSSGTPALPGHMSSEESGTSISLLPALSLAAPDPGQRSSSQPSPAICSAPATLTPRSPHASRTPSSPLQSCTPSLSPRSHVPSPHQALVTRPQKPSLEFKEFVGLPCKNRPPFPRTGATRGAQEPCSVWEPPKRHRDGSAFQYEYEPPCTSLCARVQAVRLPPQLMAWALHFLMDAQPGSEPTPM

mCherry-hTERT wild type (with hTR) (from UniProt O14746 1-1132) (enzyme)
fraction of nuclei with co-localisation (GFP-TPP1-OB-LacI (human)): 90%

wild-type telomerase (ZZ-TEV-3xFlag-hTERT with hTR) (from UniProt O14746 1-1132) (enzyme)
RAP stimulation by POT1-TPP1 relative to wild-type telomerase and wild-type TPP1 (direct telomerase activity assay) [1]: 78% | RAP stimulation by POT1-TPP1 relative to wild-type telomerase and wild-type TPP1 (direct telomerase activity assay) [2]: < 24%

hTERT R132E telomerase (ZZ-TEV-3xFlag-hTERT R132E with hTR) (from UniProt O14746 1-1132) (enzyme)
RAP stimulation by PT % of WT (direct telomerase activity assay) [3]: 24 % of WT | RAP stimulation by POT1-TPP1 relative to wild-type telomerase and wild-type TPP1 (direct telomerase activity assay) [1]: < 23% | RAP stimulation by POT1-TPP1 relative to wild-type telomerase and wild-type TPP1 (direct telomerase activity assay) [2]: < 23%

hTERT R72E telomerase (ZZ-TEV-3xFlag-hTERT R72E with hTR) (from UniProt O14746 1-1132) (enzyme)
RAP stimulation by PT % of WT (direct telomerase activity assay) [3]: 91 % of WT

hTERT R87E;R91E;K94E telomerase (ZZ-TEV-3xFlag-hTERT with hTR) (from UniProt O14746 1-1132) (enzyme)
RAP stimulation by PT % of WT (direct telomerase activity assay) [3]: 61 % of WT

hTERT K78A telomerase (ZZ-TEV-3xFlag-hTERT K78A with hTR) (from UniProt O14746 1-1132) (enzyme)
RAP stimulation by PT % of WT (direct telomerase activity assay) [3]: 88 % of WT

hTERT K78E telomerase (ZZ-TEV-3xFlag-hTERT K78E with hTR) (from UniProt O14746 1-1132) (enzyme)
RAP stimulation by PT % of WT (direct telomerase activity assay) [3]: 68 % of WT | RAP stimulation by POT1-TPP1 relative to wild-type telomerase and wild-type TPP1 (direct telomerase activity assay) [1]: 98% | RAP stimulation by POT1-TPP1 relative to wild-type telomerase and wild-type TPP1 (direct telomerase activity assay) [2]: < 24%

hTERT K78E;R132E telomerase (ZZ-TEV-3xFlag-hTERT with hTR) (from UniProt O14746 1-1132) (enzyme)
RAP stimulation by PT % of WT (direct telomerase activity assay) [3]: 18 % of WT | RAP stimulation by POT1-TPP1 relative to wild-type telomerase and wild-type TPP1 (direct telomerase activity assay) [1]: < 23% | RAP stimulation by POT1-TPP1 relative to wild-type telomerase and wild-type TPP1 (direct telomerase activity assay) [2]: < 23%

hTERT R142E telomerase (ZZ-TEV-3xFlag-hTERT R142E with hTR) (from UniProt O14746 1-1132) (enzyme)
RAP stimulation by PT % of WT (direct telomerase activity assay) [3]: 103 % of WT

hTERT K78E;R120E telomerase (ZZ-TEV-3xFlag-hTERT with hTR) (from UniProt O14746 1-1132) (enzyme)
RAP stimulation by PT % of WT (direct telomerase activity assay) [3]: 38 % of WT

mCherry-hTERT R132E (with hTR) (from UniProt O14746 1-1132) (enzyme)
fraction of TPP1-OB-fold domain foci showing telomerase signal (GFP-TPP1-OB-LacI (human)): 30%

hTERT R120E telomerase (ZZ-TEV-3xFlag-hTERT R120E with hTR) (from UniProt O14746 1-1132) (enzyme)
RAP stimulation by PT % of WT (direct telomerase activity assay) [3]: 55 % of WT

mCherry-hTERT K78E (with hTR) (from UniProt O14746 1-1132) (enzyme)
fraction of TPP1-OB-fold domain foci showing telomerase signal (GFP-TPP1-OB-LacI (human)): 55%

hTERT V144M telomerase (ZZ-TEV-3xFlag-hTERT V144M with hTR) (from UniProt O14746 1-1132) (enzyme)
RAP stimulation by PT % of WT (direct telomerase activity assay) [3]: 44 % of WT | RAP stimulation by POT1-TPP1 relative to wild-type telomerase with wild-type POT1-TPP1 (direct telomerase activity assay) [4]: 37% | POT1-TPP1 RAP stimulation compared to wild-type telomerase (direct telomerase activity assay) [5]: 61% | RAP stimulation by POT1-TPP1 relative to wild-type telomerase with wild-type POT1-TPP1 (direct telomerase activity assay) [6]: 28%
